Data from patent US20130078247A1 (Boehringer Ingelheim, published 2013).
Changes are numbered by the printed parent chain. Blank lines part the entries; values can stand above or below the binder they belong to.

Experiments:
[1] = target: T1, human DLL4, full length, overexpressed on CHO or HEK293 cells (human, UniProt Q9NR61 27-685); test: periplasmic extract; FMAT, Notch1/Fc on CHO-hDLL4
T1 construct: also called CHO-hDLL4; CHO-hDII4
Text: (§1) All calculations are based on the FL1_total signal which comprises the average of the fluorescence per well times the number of counts per well.

[2] = target: T2, mouse DLL4, full length, overexpressed on CHO or HEK293 cells (mouse, UniProt Q9JI71 27-686); test: periplasmic extract; FMAT, Notch1/Fc on CHO-mDLL4
T2 construct: whole, on cells; also called CHO-mDLL4; CHO-mDII4
Text: as §1

[3] = target: T3, recombinant human DLL4 (human, UniProt Q9NR61 25-522); test: ProteOn off-rate screen, periplasmic extract, hDLL4 on chip
T3 construct: R&D Systems C-terminally His-tagged extracellular domain; also called rhDLL4; hDLL4; not shown: C-terminal His tag
Experimental: (§2) In a first cycle, amino acid substitutions are introduced randomly in both framework (FW) and complementary determining regions (CDR) using the error-prone PCR method. […] After a polish step, PCR products are inserted via unique restriction sites into a vector designed to facilitate phage display of the VHH library. […] No selections on murine DLL4 are included as (conservation of) cross-reactivity is assessed at the screening level. Individual mutants are produced as recombinant protein using an expression vector derived from pUC119, which contains the LacZ promoter, a resistance gene for ampicillin, a multiple cloning site and an ompA leader sequence (pAX50). E. coli TG1 cells are transformed with the expression vector library and plated on agar plates (LB+Amp+2% glucose). Single colonies are picked from the agar plates and grown in 1 mL 96-deep-well plates. VHH expression is induced by adding IPTG (1 mM). Periplasmic extracts (in a volume of ˜80 uL) are prepared according to standard methods and screened for binding to recombinant human and mouse DII4 in a ProteOn (BioRad, Hercules, Calif., USA) off-rate assay. […] Periplasmic extract of affinity matured clones is diluted 1/10 and injected across the “analyte channels” A1-A6. An average off-rate is calculated of the wild type clones present in the plate and served as a reference to calculate off-rate improvements.

[4] = target: T4, recombinant mouse DLL4 (mouse, UniProt Q9JI71 27-532); test: ProteOn off-rate screen, periplasmic extract, mDLL4 on chip
T4 construct: extracellular domain; also called rmDLL4; mDLL4; not shown: C-terminal His tag
Experimental: as §2

[5] = target: T5, recombinant human DLL4 extracellular domain, C-terminally His-tagged (R&D Systems) (human, UniProt Q9NR61 25-522, biotinylated in the competition assays (sites not given)); test: periplasmic extract; hDLL4 ELISA
T5 construct: also called rhDLL4; hDLL4; not shown: C-terminal His tag

T2 sequence (Q9JI71 27-686): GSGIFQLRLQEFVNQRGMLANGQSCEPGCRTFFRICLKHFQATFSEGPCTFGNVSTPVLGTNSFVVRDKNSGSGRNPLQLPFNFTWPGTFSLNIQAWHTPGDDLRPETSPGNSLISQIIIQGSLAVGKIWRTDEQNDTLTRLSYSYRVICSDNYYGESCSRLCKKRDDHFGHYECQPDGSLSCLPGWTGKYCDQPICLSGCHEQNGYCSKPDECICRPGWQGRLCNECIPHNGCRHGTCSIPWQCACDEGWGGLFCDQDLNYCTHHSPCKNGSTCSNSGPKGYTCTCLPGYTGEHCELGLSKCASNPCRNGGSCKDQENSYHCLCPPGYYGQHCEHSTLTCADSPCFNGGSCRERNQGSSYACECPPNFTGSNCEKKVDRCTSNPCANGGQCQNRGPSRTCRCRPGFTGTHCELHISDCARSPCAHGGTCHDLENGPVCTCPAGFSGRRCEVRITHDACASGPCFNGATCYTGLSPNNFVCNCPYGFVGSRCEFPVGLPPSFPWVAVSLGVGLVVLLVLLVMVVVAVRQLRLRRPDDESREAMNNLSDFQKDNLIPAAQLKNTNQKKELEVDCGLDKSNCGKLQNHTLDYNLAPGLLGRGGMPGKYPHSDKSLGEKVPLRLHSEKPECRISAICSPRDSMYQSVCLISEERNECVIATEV
T4 sequence (Q9JI71 27-532): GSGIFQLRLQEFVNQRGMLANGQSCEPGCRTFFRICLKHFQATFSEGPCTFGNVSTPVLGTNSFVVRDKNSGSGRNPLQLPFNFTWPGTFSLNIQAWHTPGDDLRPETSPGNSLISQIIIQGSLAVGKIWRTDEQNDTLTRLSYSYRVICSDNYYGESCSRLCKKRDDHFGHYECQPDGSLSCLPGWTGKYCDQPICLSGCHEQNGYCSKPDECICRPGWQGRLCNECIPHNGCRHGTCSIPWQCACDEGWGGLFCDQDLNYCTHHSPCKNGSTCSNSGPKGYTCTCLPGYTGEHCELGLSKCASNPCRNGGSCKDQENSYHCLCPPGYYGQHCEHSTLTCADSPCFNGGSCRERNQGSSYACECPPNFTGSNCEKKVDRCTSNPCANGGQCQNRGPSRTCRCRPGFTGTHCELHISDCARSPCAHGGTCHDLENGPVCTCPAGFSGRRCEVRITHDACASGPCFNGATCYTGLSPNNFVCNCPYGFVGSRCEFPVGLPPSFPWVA

B1: DLLBII104B05 (VHH)
VHH: EVQLVESGGGSVQAGGSLRLSCAASGSISRIDVMAWYRQAPGKERELVASISSGGSTNYADSVKGRFTISREYFKNMMYLQMNSLKFEDTAVYYCNADSRRGGVGNFFRSWGQGTQVTVSS
notes: also called DLLBII104B5; DLLBII1040B05; not shown: C-terminal c-myc and His6 tags
- % inhibition [1]: 86%
- % inhibition [2]: 78%

B2: DLLBII104A03 (VHH)
VHH: EVQLVESGGGLVQAGGSLRLSCAASGDIPRIAAMGWYRQAPGKQRELVATVSNAATTRYADSAKGRFTISRDNAKTVSLQMDNLKPEDTGVYYCYSLATTVTPSWVNYWGQGTQVTVSS
notes: also called DLLBII104A3; not shown: C-terminal c-myc and His6 tags
- % inhibition [1]: 86%
- % inhibition [2]: 83%

B3: DLLBII129A03 (VHH)
VHH: EVQLVESGGGLVQAGGSLRLSCAASGRTFSSYAMAWFRQAPGKEREYVAAIRWSGGTAYYADSVQGRFTISRDNAKNTVYLQMNSLRPEDTAVYYCANRAPDTRLRPYLYDYWGQGTQVTVSS
notes: not shown: C-terminal c-myc tag and (His)6 tag
- fold (off-rate improvement over DLLBII101G08) [3]: 19 fold
- fold (off-rate improvement over DLLBII101G08) [4]: 18 fold

B4: DLLBII129H02 (VHH)
VHH: B3 VHH with F37Y, R87K, L109E
- fold (off-rate improvement over DLLBII101G08) [3]: 23 fold
- fold (off-rate improvement over DLLBII101G08) [4]: 19 fold

B7: DLLBII129B02 (VHH)
VHH: B3 VHH with R19S, F37Y, R87K, R106E, L109E, Y112H
- fold (off-rate improvement over DLLBII101G08) [3]: 30 fold
- fold (off-rate improvement over DLLBII101G08) [4]: 26 fold

B9: DLLBII129H04 (VHH)
VHH: B3 VHH with G8R, R87K, R106E, Y112H
- fold (off-rate improvement over DLLBII101G08) [3]: 33 fold
- fold (off-rate improvement over DLLBII101G08) [4]: 27 fold

B10: DLLBII129D01 (VHH)
VHH: B3 VHH with G66S, S71T, R87K, R106E, Y112H
- fold (off-rate improvement over DLLBII101G08) [3]: 26 fold
- fold (off-rate improvement over DLLBII101G08) [4]: 26 fold

B12: DLLBII129G09 (VHH)
VHH: B3 VHH with F37Y, G56E, R87K, R106E, Y112H
- fold (off-rate improvement over DLLBII101G08) [3]: 26 fold
- fold (off-rate improvement over DLLBII101G08) [4]: 20 fold

B13: DLLBII129G10 (VHH)
VHH: B3 VHH with F37Y, G66S, R87K, R106E, L109E, Y112H
- fold (off-rate improvement over DLLBII101G08) [3]: 31 fold
- fold (off-rate improvement over DLLBII101G08) [4]: 26 fold

B15: DLLBII129E07 (VHH)
VHH: B3 VHH with A23S, F37Y, A61P, R87K, R106A, L109E, Y112H
- fold (off-rate improvement over DLLBII101G08) [3]: 21 fold
- fold (off-rate improvement over DLLBII101G08) [4]: 24 fold

B18: DLLBII129E03 (VHH)
VHH: B3 VHH with E44D, R87K, R106A
- fold (off-rate improvement over DLLBII101G08) [3]: 20 fold
- fold (off-rate improvement over DLLBII101G08) [4]: 18 fold

B21: DLLBII8C11 (VHH)
VHH: EVQLVESGGGLVQAGGSLRLSCAASGFTFDDYAIGWFRQAPGKEREGVSCISSHDRTTYYADSVKGRFTISSDNAKNTVYLQMNSLKPEDTAVYYCAADPLVCGYNDPRLADYWGQGTQVTVSS
notes: also called DLLBII08C11; not shown: C-terminal c-myc and His6 tags
- % inhibition [5]: 57%

B22: DLLBII5B11 (VHH)
VHH: EVQLVESGGGLVQPGGSLRLSCAISGFTLDLHVIGWLRQAPGKEREWVSCISSSDGSTYYADSVKGRFTISRDNAKNTVYLQMNSLKPEDTAVYYCAAPWDSWYCGIGNDYDYWGQGTQVTVSS
notes: also called DLLBII05B11; not shown: C-terminal c-myc and His6 tags
- % inhibition [5]: 98%

B23: DLLBII6B11 (VHH)
VHH: EVQLVESEGGLVQAGGSLRLSCAASGSTFSSYAMGWYRQAPGKQRELVAVISNGGITNYPNSVKGRFTISRDNAKNTVYLQMNSLKPEDTAVYYCFYSGSYYYPTDVHEYDYWGQGTQVTVSS
notes: also called DLLBII06B11; not shown: C-terminal c-myc and His6 tags
- % inhibition [5]: 98%

B24: DLLBII8A09 (VHH)
VHH: EVQLVESGGGLVQPGGSLRLSCAASGFTLDYYNIGWFRQAPGKEREWVSCINSSDGSTYYADSVKGRFTISRDNAKNTVYLQMNSLKPEDTAVYYCAAPFAYYSNLCGVNGYDYWGQGTQVTVSS
notes: also called DLLBII08A09; not shown: C-terminal c-myc and His6 tags
- % inhibition [5]: 96%

B25: DLLBII101H09 (VHH)
VHH: EVQLVESGGGLVQPGGSLRLSCAASGFTLGYYTIVWFRQAPGKERKGVSCISSRDGSRYYADSVKGRFTISRDNAKNTVYLRMNSLKPEDTAVYYCAAGPDCSSYDYWGQGTQVTVSS
notes: also called DLLBII101H9; DLL1BII101H09; not shown: C-terminal c-myc and His6 tags
- % inhibition [1]: 87%
- % inhibition [2]: 75%

B26: DLLBII104C04 (VHH)
VHH: EVQLVESGGGLVQAGGSLRLSCAAAGSTFSSYVMGWYRQAPGKQRELVAHISTRGITYYADSVKGRFTISRDNAKNTMYLQMNSLKPEDTAVYYCNTRRNFLSNYWGQGTQVTVSS
notes: also called DLLBII104C4; not shown: C-terminal c-myc and His6 tags
- % inhibition [1]: 87%
- % inhibition [2]: 83%

B27: DLLBII101F01 (VHH)
VHH: EVQLVESGGGLVQAGGSLRLSCAASGRTFSNYAMGWFRQAPGKEREFVAAISWSGGDTYYADSVKGRFTISRDNAKNTVCLQMNSLKPEDTAVYYCAASFQSGAAPGANFYDYWGQGTQVTVSS
notes: also called DLLBII101F1; not shown: C-terminal c-myc and His6 tags
- % inhibition [1]: 85%
- % inhibition [2]: 78%

B28: DLLBII107C03 (VHH)
VHH: EVQLVESGGGLVQPGGSLRLSCEVSGSIGSVSDMRWYRQAPGLQYELVARITSGSITDYSDSVKGRFTISRDNAKNTVYLQMNSLKPEDTAVYYCNADVQHSAWLKPLTYWGQGTQVTVSS
notes: also called DLLBII107C3; not shown: C-terminal c-myc and His6 tags
- % inhibition [1]: 75%
- % inhibition [2]: 80%

B29: DLLBII7B05 (VHH)
VHH: EVQLVESGGGLVQAGGSLRLSCAASGFALDYYAVGWFRQAPGKEREGVSCISSRGGSTFYADSVKGRFTTSRNNAKNTVYLQMNSLKPEDTAVYYCAAHPLQNCCGGSAYASPEAVYEYWGQGTQVTVSS
notes: also called DLLBII7B5; DLLBII07B05; not shown: C-terminal c-myc and His6 tags
- % inhibition [5]: 84%

B30: DLLBII112E07 (VHH)
VHH: EVQLVESGGGLVQAGGSLRLSCAASGRTVRSYATGWFRQAPGKEREFVAALRWSIGSIASVYYDDSVKGRFTISGDNAENTVYLQMNALKPEDTAIYYCASTTRGRYSALSASAYDYWGQGTQVTVSS
notes: also called DLLBII112E7; not shown: C-terminal c-myc and His6 tags
- % inhibition [1]: 80%
- % inhibition [2]: 85%

Continued, values first:

- fold (off-rate improvement over DLLBII101G08) [3]: 24 fold
- fold (off-rate improvement over DLLBII101G08) [4]: 18 fold
B5: DLLBII130E03 (VHH)
VHH: B3 VHH with F37Y, R87K, R106E, L109E, Y112H

- fold (off-rate improvement over DLLBII101G08) [3]: 27 fold
- fold (off-rate improvement over DLLBII101G08) [4]: 20 fold
B6: DLLBII130B03 (VHH)
VHH: B3 VHH with F37Y, R87K, R106A
notes: as for B3

- fold (off-rate improvement over DLLBII101G08) [3]: 24 fold
- fold (off-rate improvement over DLLBII101G08) [4]: 17 fold
B8: DLLBII130A05 (VHH)
VHH: B3 VHH with F37Y, R87K, R106G, Y112H

- fold (off-rate improvement over DLLBII101G08) [3]: 24 fold
- fold (off-rate improvement over DLLBII101G08) [4]: 19 fold
B11: DLLBII129H05 (VHH)
VHH: B3 VHH with F37Y, Q39L, R87K, R106G

- fold (off-rate improvement over DLLBII101G08) [3]: 27 fold
- fold (off-rate improvement over DLLBII101G08) [4]: 19 fold
B14: DLLBII130F06 (VHH)
VHH: B3 VHH with F37Y, R87K, R106A, L109E
notes: as for B3

- fold (off-rate improvement over DLLBII101G08) [3]: 22 fold
- fold (off-rate improvement over DLLBII101G08) [4]: 17 fold
B16: DLLBII130B04 (VHH)
VHH: B3 VHH with R87K, Y112H

- fold (off-rate improvement over DLLBII101G08) [3]: 23 fold
- fold (off-rate improvement over DLLBII101G08) [4]: 17 fold
B17: DLLBII130B02 (VHH)
VHH: B3 VHH with N84Y, R87K, R106A, Y112H

- fold (off-rate improvement over DLLBII101G08) [3]: 30 fold
- fold (off-rate improvement over DLLBII101G08) [4]: 27 fold
B19: DLLBII129H07 (VHH)
VHH: B3 VHH with F37Y, R87K, R106E, L109E
notes: as for B3

- fold (off-rate improvement over DLLBII101G08) [3]: 26 fold
- fold (off-rate improvement over DLLBII101G08) [4]: 16 fold
B20: DLLBII130D06 (VHH)
VHH: B3 VHH with A23S, F37Y, G56E, R87K, R106E, Y112H
